The text below walks through data of patent publication EP4725963A1 (Jiangsu Hengrui Pharmaceuticals Co., Ltd., dated 2026).

Experiment [1] deals with T1, human NPR1 full-length protein overexpressed on CHO-K1 cells (human, UniProt P16066 33-1061).
T1 sequence: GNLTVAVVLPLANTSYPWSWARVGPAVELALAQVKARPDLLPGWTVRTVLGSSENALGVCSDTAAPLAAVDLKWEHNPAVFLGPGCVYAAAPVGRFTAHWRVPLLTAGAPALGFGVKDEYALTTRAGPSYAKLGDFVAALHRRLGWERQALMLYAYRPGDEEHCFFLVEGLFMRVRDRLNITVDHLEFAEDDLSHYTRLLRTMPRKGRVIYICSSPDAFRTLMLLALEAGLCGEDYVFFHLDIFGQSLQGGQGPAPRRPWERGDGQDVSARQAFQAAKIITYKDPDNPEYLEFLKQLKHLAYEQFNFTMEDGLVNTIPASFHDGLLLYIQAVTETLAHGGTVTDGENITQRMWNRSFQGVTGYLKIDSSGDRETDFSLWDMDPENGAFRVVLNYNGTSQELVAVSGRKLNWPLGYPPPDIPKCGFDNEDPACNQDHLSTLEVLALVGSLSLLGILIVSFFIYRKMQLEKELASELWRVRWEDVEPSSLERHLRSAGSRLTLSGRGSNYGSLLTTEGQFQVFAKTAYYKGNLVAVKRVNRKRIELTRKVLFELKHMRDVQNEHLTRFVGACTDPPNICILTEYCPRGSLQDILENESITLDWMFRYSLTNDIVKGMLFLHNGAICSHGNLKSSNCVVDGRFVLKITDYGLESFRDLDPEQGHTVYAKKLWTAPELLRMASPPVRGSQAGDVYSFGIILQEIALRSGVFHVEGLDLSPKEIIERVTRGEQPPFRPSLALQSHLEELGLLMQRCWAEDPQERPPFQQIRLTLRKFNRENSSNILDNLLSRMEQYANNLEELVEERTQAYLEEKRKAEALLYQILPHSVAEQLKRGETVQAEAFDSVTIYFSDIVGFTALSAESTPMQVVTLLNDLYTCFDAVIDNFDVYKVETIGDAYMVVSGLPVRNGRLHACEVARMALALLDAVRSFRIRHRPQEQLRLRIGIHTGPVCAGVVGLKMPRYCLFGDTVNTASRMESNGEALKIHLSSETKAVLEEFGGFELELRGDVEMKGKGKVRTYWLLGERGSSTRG
The experiment can be described thus: cell-based or functional assay.

The target in the next experiment is T2, hNPR2 (human, UniProt P20594 23-458, limits assumed).
T2 construct: Commercial protein; construct not described; also called hNPR2 antigen
T2 sequence (looked up): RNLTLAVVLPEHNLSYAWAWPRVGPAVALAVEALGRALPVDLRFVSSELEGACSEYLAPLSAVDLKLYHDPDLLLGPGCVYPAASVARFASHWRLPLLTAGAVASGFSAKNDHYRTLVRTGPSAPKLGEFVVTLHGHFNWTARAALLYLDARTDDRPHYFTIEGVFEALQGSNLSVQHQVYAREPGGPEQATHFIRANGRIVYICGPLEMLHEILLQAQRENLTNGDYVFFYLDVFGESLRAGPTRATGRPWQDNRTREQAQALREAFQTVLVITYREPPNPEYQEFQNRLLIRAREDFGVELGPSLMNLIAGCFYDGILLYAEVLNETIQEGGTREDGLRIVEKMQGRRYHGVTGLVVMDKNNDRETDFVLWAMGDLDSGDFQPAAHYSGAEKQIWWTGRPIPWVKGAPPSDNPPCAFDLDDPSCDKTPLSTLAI
In words: ELISA, plate coated with 4 µg/mL antigen. On the technique in general: ELISA stands for enzyme-linked immunosorbent assay.

Experiment [2] deals with T3, fusion protein of the human NPR1 protein extracellular domain and human-IgG1-Fc (human).
T3 construct: also called hNPR1-hFc; hNPR1
T3 sequence (chain, as listed by the source limits assumed): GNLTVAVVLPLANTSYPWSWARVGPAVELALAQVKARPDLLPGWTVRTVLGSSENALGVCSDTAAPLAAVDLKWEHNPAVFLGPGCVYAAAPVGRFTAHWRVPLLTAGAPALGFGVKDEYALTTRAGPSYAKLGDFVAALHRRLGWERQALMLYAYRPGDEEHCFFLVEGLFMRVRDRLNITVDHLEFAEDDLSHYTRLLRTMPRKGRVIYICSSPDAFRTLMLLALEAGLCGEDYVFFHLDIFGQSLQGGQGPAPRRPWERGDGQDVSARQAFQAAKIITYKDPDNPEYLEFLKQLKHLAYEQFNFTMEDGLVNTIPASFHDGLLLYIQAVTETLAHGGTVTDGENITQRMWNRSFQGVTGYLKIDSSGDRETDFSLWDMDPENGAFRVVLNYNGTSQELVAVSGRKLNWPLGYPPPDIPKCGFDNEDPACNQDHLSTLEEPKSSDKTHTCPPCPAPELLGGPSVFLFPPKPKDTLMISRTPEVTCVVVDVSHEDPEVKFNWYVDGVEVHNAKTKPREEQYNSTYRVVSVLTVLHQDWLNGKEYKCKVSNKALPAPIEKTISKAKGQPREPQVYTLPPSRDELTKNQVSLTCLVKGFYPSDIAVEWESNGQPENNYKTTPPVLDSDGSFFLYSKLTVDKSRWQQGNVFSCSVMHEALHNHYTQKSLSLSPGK
The experiment can be described thus: ELISA, plate coated with 4 µg/mL hNPR1 antigen.

Experiment [3] deals with T1, human NPR1 full-length protein …. In words: cell-based or functional assay. The source holds these as a separate data set.

B1: Hu128H3L1-6 (antibody, human IgG1, kappa, L234A L235A, V domains shown)
VH: EVQLVQSGAEVKKPGASVKVSCKASGYTFTSYWMHWVRQAPGQGLEWMGRIDPNSGVTKYNEKFKSRVTLTVDKPSSPAYMELSSLRSEDTAVYYCARSSYLGRYFDVWGQGTTVTVSS
VL: EIVLTQSPATLSLSPGERATLKCSATSSVSYMYWYQQKPGQAPRLLIYDTYNLGSRIPARFSGSGSGTDYTLTISRLEPEDFAVYYCQQWSSYPPTFGQGTKLEIKR
notes: Humanized, human IgG1 LALA/kappa
As a reminder, the EC50 is the concentration at which the effect is half-maximal. The low end stands for a more potent agent, the high end for a less potent agent. As to B1, the “cGMP production: EC50” value in experiment [1] was found to be 7.9 nM. Further, the binding result with hNPR2 was “no binding (tested: 20 µg/mL (highest concentration))”. Besides, in experiment [2], the EC50 turned out to be 1.84 nM. Further, in experiment [3], the “Ratio (without ANP) of NPR1 antigens remaining on the cell surface after endocytosis to the initial number, 10 min, 20 µg/mL” value is 1.3 ratio; the “Ratio (without ANP) of NPR1 antigens remaining on the cell surface after endocytosis to the initial number, 1 h, 20 µg/mL” value was 0.91 ratio; the “Ratio (without ANP) of NPR1 antigens remaining on the cell surface after endocytosis to the initial number, 7 hrs, 20 µg/mL” value is 0.96 ratio; the “Ratio (without ANP) of NPR1 antigens remaining on the cell surface after endocytosis to the initial number, 24 hrs, 20 µg/mL” value is 0.82 ratio.
